Values joined by “and” are separate entries in the source; they are usually repeats but may differ in a detail not shown here. Equal values may be shown once.
T1: TGF-β3 (UniProt P10600 301-412)
T1 sequence (looked up): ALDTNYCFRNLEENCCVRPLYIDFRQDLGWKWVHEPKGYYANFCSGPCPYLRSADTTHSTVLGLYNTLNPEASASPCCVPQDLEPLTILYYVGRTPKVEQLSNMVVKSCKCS

T2: TGF-β2 K25R I92V K94R (TGF-β2TM) (UniProt P61812 303-414, K25R; I92V; K94R)
T2 construct: mature
T2 sequence (looked up): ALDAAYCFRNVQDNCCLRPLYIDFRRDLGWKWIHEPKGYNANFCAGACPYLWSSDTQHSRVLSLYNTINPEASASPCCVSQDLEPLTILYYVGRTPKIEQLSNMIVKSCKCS


How the values were obtained:
TGF-β3 = molecular target: T1, TGF-β3; test: SPR competition, receptor with 0.8 nM TGF-β3 over immobilized 1D11
Procedure: FIG. 6. SPR competition binding data in which increasing concentrations of RII (R), RIII (EU), and RII-RIII (REU) were pre-incubated with 0.8 nM TGF-β3 for 16 h and then injected over a high-density (20000 RU) SPR surface with the TGF-β monoclonal antibody 1D11. Data is presented in terms of the initial slope (which is directly proportional to the concentration of the free TGF-β3 concentration) as a function of the competitor (R, EU, or REU) concentration. Two independent measurements were performed for each of the receptor constructs studied (designated by −a and −b in the legend).
The initial slope of these sensorgrams, which is a linear function of the free TGF-β3 concentration, was then plotted as a function of the concentration of RII, RIII (EU), or RII-RIII (REU) (FIG. 6).

[1] = molecular target: T2, TGF-β2 K25R I92V K94R (TGF-β2TM); test: SDS-PAGE densitometry of the SEC-isolated complex (TGF-β2TM 51.6 pmol)
Description: RII:RIII:TGF-β2TM form a stable non-disassociating 1:1:1 complex in solution. […] The mixture was applied to a Superdex 200 size exclusion chromatography column and the UV absorbance of the column eluate at 280 nm was monitored. […] To determine the stoichiometry of the complex, a sample of the isolated RII:RIII:TGFβ2-TM complex was run on an SDS-PAGE gel along with known amounts of the individual components (FIG. 3d).

[2] = molecular target: T2, TGF-β2 K25R I92V K94R (TGF-β2TM); test: SPR, RII injected over immobilized TGF-β2TM with or without 80 nM RIII (competitor RIII)
Procedure: (§1) FIG. 2. RII (R) and RIII (EU) form a 1:1:1 complex with TGF-β homodimers. (a) SPR sensorgrams in which increasing concentrations of RII and RIII were injected over a SPR sensor surface with immobilized TGF-β2TM. Mass normalized sensorgrams are shown in panels on the left. Plots of the mass normalized equilibrium response (Req) as a function of receptor concentration ([Receptor]), along with fits to Req=(Rₘₐₓ×[Receptor])/(Kd+[Receptor]), are shown on the right.
The TGF-β type III receptor potentiates the binding of the TGF-β type II receptor, but reduces its binding stoichiometry to one per TGF-β homodimer. This was shown by performing SPR experiments in which increasing concentrations of RII were injected over immobilized TGF-β2TM in the absence or presence of a saturating concentration of RIII (80 nM) (FIG. 2b).

[3] = molecular target: T2, TGF-β2 K25R I92V K94R (TGF-β2TM); test: SPR, receptor injected over immobilized TGF-β2TM
Procedure: as §1
The TGF-β type III receptor binds TGF-β dimers with 1:1 stoichiometry. This was shown by comparing the maximal mass-normalized SPR response as increasing concentrations of the purified TGF-β type II receptor ectodomain (RII) and purified TGF-β type III receptor ectodomain (RIII) were injected over immobilized TGF-β2 K25R I92V K94R (TGF-β2TM), a variant of TGF-β2 that binds RII with high affinity (Baardsnes et al, 2009, Biochemistry, 48, 2146-2155; De Crescenzo et al, 2006, J Mol Biol, 355, 47-62).

decrease of EC50 relative to RII or RIII (EU) (TGF-β3)	fold reduction of the maximal mass normalized binding response in the presence of 80 nM RIII [2]	maximal mass-normalized response relative to that of RII [3]	Binder	amount in the isolated RII:RIII:TGF-β2TM complex [1]
≥ 0.5 log units and ~3 fold	–	–	RII-RIII (REU) fusion (other) AAANGAVKFPQLCKFCDVRFSTCDNQKSCMSNCSITSICEKPQEVCVAVWRKNDENITLETVCHDPKLPYHDFILEDAASPKCIMKEKKKPGETFFMCSCSSDECNDNIIFSEEYNTSNPDGLGPVESSPGHGLDTAAACELSPINASHPVQALMESFTVLSGCASRGTTGLPREVHVLNLRSTDQGPGQRQREVTLHLNPIASVHTHHKPIVFLLNSPQPLVWHLKTERLAAGVPRLFLVSEGSVVQFPSGNFSLTAETEERNFPQENEHLLRWAQKEYGAVTSFTELKIARNIYIKVGEDQVFPPTCNIGKNFLSLNYLAEYLQPKAAEGCVLPSQPHEKEVHIIELITPSSNPYSAFQVDIIVDIRPAQEDPEVVKNLVLILKCKKSVNWVIKSFDVKGNLKVIAPNSIGFGKESERSMTMTKLVRDDIPSTQENLMKWALDNGYRPVTSYTMAPVANRFHLRLENNEEMRDEEVHTIPPELRILLDPDHPPALDNPLFPGEGSPNGGLPFPFPDIPRRGWKEGEDRIPRPKQPIVPSVQLLPDHREPEEVQGGVDIALSVKCDHEKMVVAVDKDSFQTNGYSGMELTLLDPSCKAKMNGTHFVLESPLNGCGTRHRRSTPDGVVYYNSIVVQAPSPGDSAGWPDGYEDLEAGDNGFPGDGDEGETAPLSRAGVVVFNCSLRQLRNPSGFQGQLDGNATFNMELYNTDLFLVPSPGVFSVAENEHVYVEVSVTKADQDLGFAIQTCFLSPYSNPDRMSDYTIIENICPKDDSVKFYSSKRVHFPIPHAEVDKKRFSFLFKSVFNTSLLFLHCELTLCSRKKGSLKLPRCVTPDDACTSLDATMIWTMMQNKKTFTKPLAVVLQVD	–
–	2 fold	–	purified TGF-β type II receptor ectodomain (RII) (receptor) NGAVKFPQLCKFCDVRFSTCDNQKSCMSNCSITSICEKPQEVCVAVWRKNDENITLETVCHDPKLPYHDFILEDAASPKCIMKEKKKPGETFFMCSCSSDECNDNIIFSEEYNTSNPD	61.8 pmol
–	–	~0.5 fold (ratio to RII)	purified TGF-β type III receptor ectodomain (RIII) (receptor, EU was made in CHO Lec 3.2.8.1 cells and purified on NiNTA, which implies a His tag that is not explicitly stated for EU; also called EU; RIII (EU)) CELSPINASHPVQALMESFTVLSGCASRGTTGLPREVHVLNLRSTDQGPGQRQREVTLHLNPIASVHTHHKPIVFLLNSPQPLVWHLKTERLAAGVPRLFLVSEGSVVQFPSGNFSLTAETEERNFPQENEHLLRWAQKEYGAVTSFTELKIARNIYIKVGEDQVFPPTCNIGKNFLSLNYLAEYLQPKAAEGCVLPSQPHEKEVHIIELITPSSNPYSAFQVDIIVDIRPAQEDPEVVKNLVLILKCKKSVNWVIKSFDVKGNLKVIAPNSIGFGKESERSMTMTKLVRDDIPSTQENLMKWALDNGYRPVTSYTMAPVANRFHLRLENNEEMRDEEVHTIPPELRILLDPDHPPALDNPLFPGEGSPNGGLPFPFPDIPRRGWKEGEDRIPRPKQPIVPSVQLLPDHREPEEVQGGVDIALSVKCDHEKMVVAVDKDSFQTNGYSGMELTLLDPSCKAKMNGTHFVLESPLNGCGTRHRRSTPDGVVYYNSIVVQAPSPGDSAGWPDGYEDLEAGDNGFPGDGDEGETAPLSRAGVVVFNCSLRQLRNPSGFQGQLDGNATFNMELYNTDLFLVPSPGVFSVAENEHVYVEVSVTKADQDLGFAIQTCFLSPYSNPDRMSDYTIIENICPKDDSVKFYSSKRVHFPIPHAEVDKKRFSFLFKSVFNTSLLFLHCELTLCSRKKGSLKLPRCVTPDDACTSLDATMIWTMMQNKKTFTKPLAVVLQVD	62.4 pmol

— patent US20170166624A1 (University of Texas, published 2017)
